Source: patent US7700101B2, “Reagents and method for modulating Dkk-mediated interactions” (Wyeth, priority 2001, dated 2010)
One block for each molecule: values may come before it.

What was measured:
LRP6 [1] = target: T1, LRP6 (Homo sapiens, UniProt O75581); conditions: Mao et al.; classical biochemical ligand-receptor studies; cited from earlier work
Target sequence in this assay (O75581 20-1613, species assumed): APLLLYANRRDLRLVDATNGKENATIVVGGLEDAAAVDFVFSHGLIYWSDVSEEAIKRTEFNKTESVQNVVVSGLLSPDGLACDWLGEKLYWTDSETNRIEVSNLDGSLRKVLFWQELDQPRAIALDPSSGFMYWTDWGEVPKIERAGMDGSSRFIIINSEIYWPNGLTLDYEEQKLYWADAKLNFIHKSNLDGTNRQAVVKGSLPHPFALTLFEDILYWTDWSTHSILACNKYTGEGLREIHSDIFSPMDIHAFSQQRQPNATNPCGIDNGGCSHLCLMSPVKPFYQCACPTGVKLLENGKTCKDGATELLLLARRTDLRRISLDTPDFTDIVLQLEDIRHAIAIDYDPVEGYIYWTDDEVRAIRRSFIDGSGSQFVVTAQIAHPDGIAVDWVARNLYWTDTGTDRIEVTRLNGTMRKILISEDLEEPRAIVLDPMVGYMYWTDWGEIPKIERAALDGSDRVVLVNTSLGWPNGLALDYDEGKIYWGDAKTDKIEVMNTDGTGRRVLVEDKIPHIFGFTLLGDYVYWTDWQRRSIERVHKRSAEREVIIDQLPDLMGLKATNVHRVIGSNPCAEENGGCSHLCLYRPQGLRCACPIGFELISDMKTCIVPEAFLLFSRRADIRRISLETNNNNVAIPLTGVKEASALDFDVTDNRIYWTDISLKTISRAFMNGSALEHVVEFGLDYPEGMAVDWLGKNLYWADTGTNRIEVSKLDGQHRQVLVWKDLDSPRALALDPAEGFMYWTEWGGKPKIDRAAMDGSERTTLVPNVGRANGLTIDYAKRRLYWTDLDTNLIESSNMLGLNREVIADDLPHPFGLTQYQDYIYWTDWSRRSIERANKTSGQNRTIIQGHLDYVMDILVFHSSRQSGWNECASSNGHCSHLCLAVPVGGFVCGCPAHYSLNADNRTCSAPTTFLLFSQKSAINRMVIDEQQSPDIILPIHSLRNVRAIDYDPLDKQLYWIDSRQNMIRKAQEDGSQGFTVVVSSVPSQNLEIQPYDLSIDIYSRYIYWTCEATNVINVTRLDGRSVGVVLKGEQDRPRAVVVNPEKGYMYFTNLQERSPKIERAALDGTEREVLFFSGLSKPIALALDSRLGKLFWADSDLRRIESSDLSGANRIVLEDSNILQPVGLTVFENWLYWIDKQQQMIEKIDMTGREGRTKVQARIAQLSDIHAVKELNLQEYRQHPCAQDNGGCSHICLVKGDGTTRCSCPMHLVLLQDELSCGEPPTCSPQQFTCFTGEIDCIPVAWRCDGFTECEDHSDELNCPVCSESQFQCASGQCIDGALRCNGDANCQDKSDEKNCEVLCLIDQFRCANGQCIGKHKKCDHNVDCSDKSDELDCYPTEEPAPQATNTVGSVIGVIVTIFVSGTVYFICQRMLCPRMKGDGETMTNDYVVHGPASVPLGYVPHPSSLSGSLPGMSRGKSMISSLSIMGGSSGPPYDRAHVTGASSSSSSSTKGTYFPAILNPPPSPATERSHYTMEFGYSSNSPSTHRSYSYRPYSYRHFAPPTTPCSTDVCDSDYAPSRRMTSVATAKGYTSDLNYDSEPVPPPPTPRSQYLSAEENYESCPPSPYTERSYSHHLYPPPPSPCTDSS

LRP6 [2] = target: T1, LRP6; experiment: TCF-luciferase assay in HOB-03-CE6 cells, LRP6; type: cell-based; parameters: Full length LRP6 was isolated from the pED6dpc4 vector; expressed in transfected cells; host or cells: HOB-03-CE6 osteoblastic cells; U2OS osteosarcoma cells; HEK293
Target sequence in this assay (O75581 20-1613): as the sequence (O75581 20-1613, species assumed) above

HBM = target: T2, HBM (Homo sapiens, UniProt O75197, G171V); experiment: TCF-luciferase assay in HOB-03-CE6 cells, HBM; type: cell-based; conditions: Wnt3a, FIG. 15
T2 construct: Full length Zmax/LRP5 and HBM ORF cDNA; expressed in transfected cells; host or cells: HOB-03-CE6 osteoblastic cells; U2OS osteosarcoma cells; HEK293
T2 sequence (O75197 32-1615 G171V): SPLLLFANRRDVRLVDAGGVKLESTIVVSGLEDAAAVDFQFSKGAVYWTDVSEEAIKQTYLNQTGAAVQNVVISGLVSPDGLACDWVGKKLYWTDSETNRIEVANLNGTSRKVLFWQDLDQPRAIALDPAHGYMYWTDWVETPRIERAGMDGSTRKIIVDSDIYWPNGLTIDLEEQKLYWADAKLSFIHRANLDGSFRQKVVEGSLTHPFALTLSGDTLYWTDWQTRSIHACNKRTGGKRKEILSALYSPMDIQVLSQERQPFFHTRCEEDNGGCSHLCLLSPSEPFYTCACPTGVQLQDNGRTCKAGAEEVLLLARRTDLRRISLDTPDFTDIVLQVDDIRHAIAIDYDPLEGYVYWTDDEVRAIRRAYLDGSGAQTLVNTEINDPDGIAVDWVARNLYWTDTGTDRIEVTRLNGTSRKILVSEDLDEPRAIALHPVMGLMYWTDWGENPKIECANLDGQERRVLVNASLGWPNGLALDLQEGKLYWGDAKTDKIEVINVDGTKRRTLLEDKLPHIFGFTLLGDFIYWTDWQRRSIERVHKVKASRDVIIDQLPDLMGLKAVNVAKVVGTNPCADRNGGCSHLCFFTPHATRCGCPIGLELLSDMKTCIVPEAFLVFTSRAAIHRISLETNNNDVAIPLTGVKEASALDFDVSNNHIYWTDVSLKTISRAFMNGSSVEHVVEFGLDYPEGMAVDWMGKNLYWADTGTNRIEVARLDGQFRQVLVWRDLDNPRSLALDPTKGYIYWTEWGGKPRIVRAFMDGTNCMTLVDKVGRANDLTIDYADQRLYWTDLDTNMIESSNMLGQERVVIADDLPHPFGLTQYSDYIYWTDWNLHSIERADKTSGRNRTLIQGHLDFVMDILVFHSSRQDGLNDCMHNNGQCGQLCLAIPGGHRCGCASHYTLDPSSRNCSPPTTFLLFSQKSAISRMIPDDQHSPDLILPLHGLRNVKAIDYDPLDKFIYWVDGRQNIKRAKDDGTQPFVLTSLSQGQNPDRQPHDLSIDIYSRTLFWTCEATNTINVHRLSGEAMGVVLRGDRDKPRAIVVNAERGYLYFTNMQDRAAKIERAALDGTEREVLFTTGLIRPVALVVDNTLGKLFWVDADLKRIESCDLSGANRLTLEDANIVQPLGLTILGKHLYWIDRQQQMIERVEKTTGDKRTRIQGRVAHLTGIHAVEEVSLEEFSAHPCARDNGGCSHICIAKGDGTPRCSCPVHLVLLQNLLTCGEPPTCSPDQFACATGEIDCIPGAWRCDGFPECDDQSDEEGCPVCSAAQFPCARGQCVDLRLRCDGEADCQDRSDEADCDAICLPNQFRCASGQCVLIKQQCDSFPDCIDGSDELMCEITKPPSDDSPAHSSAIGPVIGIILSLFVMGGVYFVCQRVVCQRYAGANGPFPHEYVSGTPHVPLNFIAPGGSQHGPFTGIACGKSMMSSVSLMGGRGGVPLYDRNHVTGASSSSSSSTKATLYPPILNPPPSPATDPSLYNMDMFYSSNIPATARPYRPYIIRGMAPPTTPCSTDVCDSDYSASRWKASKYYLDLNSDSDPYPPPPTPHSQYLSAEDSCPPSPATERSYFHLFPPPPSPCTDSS
Protocol: (§1) HOB-03-CE6 osteoblastic cells developed by Wyeth Ayerst (Philadelphia, Pa.) were seeded into 24-well plates at 150,000 cells per well in 1 ml of the growth media (D-MEM/F12 phenol red-free) containing 10% (v/v) heat-inactivated FBS, 1×penicillin streptomycin, and 1X Glutamax-1, and incubated overnight at 34° C. The following day, the cells were transfected using Lipofectamine 2000® (as described by the manufacturer, Invitrogen) in OptiMEM (Invitrogen) with 0.35 μg/well of LRP5, HBM, or control plasmid DNA (empty vector pcDNA3.1) and either Wnt1 or Wnt3 a plasmid DNA. […] All wells were transfected with 0.025 μg/well of CMV beta-galactosidase plasmid DNA and 0.35 μg/well 16X TCF(ASyluciferase reporter DNA (developed by Ramesh Bhat, Wyeth-Ayerst (Philadelphia, Pa.)). After 4 hours of incubation, the cells were rinsed and 1 ml of fresh growth media was added to each well. The cells were cultured overnight at 34° C., followed by a wash and a change of media. Cells were cultured for an additional 18-24 hours at 37° C. Cells were then lysed with 50 μl/well of 1X lysis buffer. The extracts were assayed for beta-galactosidase activity (Galacto Reaction Buffer Diluent & Light Emission Accelerator, Tropix) using 5 μl extract+50 μl beta-galactosidase diluent and luciferase activity (Luciferase Assay Reagent, Promega) using 20 μl extract.

LRP5 = target: T3, LRP5 (Homo sapiens, UniProt O75197); experiment: TCF-luciferase assay in HOB-03-CE6 cells, LRP5; type: cell-based; conditions: Wnt3a, FIG. 15
T3 construct: Site-directed mutants of LRP5 were generated in the full-length human LRP5 cDNA; expressed in transfected cells; host or cells: HOB-03-CE6 osteoblastic cells; U2OS osteosarcoma cells; HEK293
T3 sequence (O75197 32-1615): as the sequence (O75197 32-1615 G171V) above, with V140G counted along it
Protocol: as §1, with “DNA. Similar experiments were performed with LRP6 plasmid DNA (0.35 μg/well) or a control pEDdpc4 empty vector.” for “DNA.”

[3] = tested on: Zmax1/LRP5 ligand binding domain (LBD) baits LBD1 and LBD4; experiment: Yeast two hybrid minimum interaction domain mapping of Dkk-1 with LRP5; conditions: FIG. 6
Zmax1/LRP5 ligand binding domain (LBD) baits LBD1 and LBD4, sequence (as listed by the source): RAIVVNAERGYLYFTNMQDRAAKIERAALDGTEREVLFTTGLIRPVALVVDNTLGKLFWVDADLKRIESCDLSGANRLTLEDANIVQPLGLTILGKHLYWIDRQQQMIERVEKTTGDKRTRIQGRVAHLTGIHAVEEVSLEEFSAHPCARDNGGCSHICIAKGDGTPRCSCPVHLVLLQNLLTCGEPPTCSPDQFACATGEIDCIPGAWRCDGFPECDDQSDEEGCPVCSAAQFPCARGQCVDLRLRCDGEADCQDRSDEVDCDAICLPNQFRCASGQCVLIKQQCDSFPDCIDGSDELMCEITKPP
Text: Further analysis of yeast two hybrid (Y2H) interacting proteins includes the dissection of protein motifs responsible for the interaction. Sequence alignment of multiple clones identified in the Y2H screens can help identify the smallest common region responsible for the interaction. In the absence of appropriate clones, deletion mapping of interacting domains is necessary.
PCR primers containing restriction sites suitable for cloning are designed to cover multiple sub-domains of the protein of interest (bait or prey). The methods involved in cloning, sequencing, yeast transformation, mating, and scoring of interactions are readily performed by one of ordinary skill in the art of molecular biology and genetic engineering.
The primers, which are presented in 5′ to 3′ orientation, were as follows: […]
PCR was performed using PfuTurbo® polymerase (Stratagene). The PCR products were gel purified, digested with SaflI/NotI and ligated to pPC86 (Gibco/BRL) which had been linearized with SalI/NotI.
These clones were transformed into yeast and mated with each of three yeast strains containing pDBleu (Gibco/BRL), pDBleuLBD1, and pDBleuLBD4. Positive interactions were detected by growth of the hybrids on appropriate selective media.

Wnt pathway = experiment: Xenopus embryo screening for duplicated body axis; type: in vivo; conditions: RNA injected into ventral blastomere; LRP5 500 pg, Wnt5a 20 pg
Text: Modification of the Wnt signaling pathway can be visualized by examining the embryos for a dorsalization phenotype (duplicated body axis) after RNA injection into the ventral blastomere at the 4- or 8-cell stage. On the molecular level, phenotypes can be analyzed by looking for expression of various marker genes in stage 10.5 embryos. Such markers would include general endoderm, mesoderm, and ectoderm markers as well as a variety of tissue-specific transcripts.
mRNA for microinjection into Xenopus embryos is generated by in vitro transcription using the CDNA constructs in the pCS2^+ vector described above as template. RNA is synthesized using the Ambion mMessage mMachine high yield capped RNA transcription kit (Cat. #1340) following the manufacturer's specifications for the Sp6 polymerase reactions. RNA products were brought up to a final volume of 50 μl in sterile, glass-distilled water and purified over Quick Spin-Columns for Radiolabelled RNA Purification G50-Sephadex (Roche, Cat. #1274015) following the manufacturer's specifications. The resulting eluate was finally extracted with phenol:chloroform:isoamyl alcohol and isopropanol precipitated using standard protocols (Sambrook et al., 1989). Final RNA volumes were approximately 50 μl. RNA concentration was determined by absorbance values at 260 nm and 280 nm. […]

- LRP6/Wnt1 mediated TCF-luciferase activity (LRP6 [2]; Wnt1, FIG. 14): had no effect
B1: Dkk-2: human Dickkopf-2, Dkk family member, full length cDNA (protein, UniProt Q9UBU2 1-259, looked up)
chain: MAALMRSKDSSCCLLLLAAVLMVESSQIGSSRAKLNSIKSSLGGETPGQAANRSAGMYQGLAFGGSKKGKNLGQAYPCSSDKECEVGRYCHSPHQGSSACMVCRRKKKRCHRDGMCCPSTRCNNGICIPVTESILTPHIPALDGTRHRDRNHGHYSNHDLGWQNLGRPHTKMSHIKGHEGDPCLRSSDCIEGFCCARHFWTKICKPVLHQGEVCTKQRKKGSHGLEIFQRCDCAKGLSCKVWKDATYSSKARLHVCQKI
modifications: full-length
notes: human Dickkopf-2, Dkk family member, full length cDNA
- Kd (LRP6 [1]): 730 pM
- LRP6/Wnt3a mediated TCF-luciferase activity (LRP6 [2]; Wnt3a, FIG. 15): able to antagonize LRP6/Wnt3a mediated TCF-luciferase activity
- HBM/Wnt3a mediated TCF-luciferase activity (HBM): able to antagonize the TCF-luciferase activity
- LRP5/Wnt3a mediated TCF-luciferase activity (LRP5): able to antagonize the TCF-luciferase activity

- growth of diploids on selective media (interaction with LRP5 LBD baits) [3]: no growth was observed
B2: D11: Dkk-1 fragment clone F3/R2: Val 139-Cys245 (protein)
chain: VSSDQNHFRGEIEETITESFGNDHSTLDGYSRRTTLSSKMYHTKGQEGSVCLRSSDCASGLCCARHFWSKICKPVLKEGQVCTKHRRKGSHGLEIFQRCYCGEGLSC
modifications: left off: large carriers

B3: Wnt5a: murine Wnt5a cDNA clone, RNA injected (protein, UniProt P22725 62-380, looked up)
Protein Wnt-5a: IIGAQPLCSQLAGLSQGQKKLCHLYQDHMQYIGEGAKTGIKECQYQFRHRRWNCSTVDNTSVFGRVMQIGSRETAFTYAVSAAGVVNAMSRACREGELSTCGCSRAARPKDLPRDWLWGGCGDNIDYGYRFAKEFVDARERERIHAKGSYESARILMNLHNNEAGRRTVYNLADVACKCHGVSGSCSLKTCWLQLADFRKVGDALKEKYDSAAAMRLNSRGKLVQVNSRFNSPTTQDLVYIDPSPDYCVRNESTGSLGTQGRLCNKTSEGMDGCELMCCGRGYDQFKTVQTERCHCKFHWCCYVKCKKCTEIVDQFVCK
- induction of axis duplication (Wnt pathway): could not induce axis duplication
